{"source": "the PETadex activity labels", "proteins": {"B1": {"name": "unnamed (protein)", "chain": "MRPCSRSTNTTPPLRTRSRPMTALIALATTIGLALTLLTATAAPAAAADLLSQGKPVTSSSTENTSTPASAAVDGNTGTRWSSTFSDPQWLTVDLGATATISQVVLRWEAAYARSFRIQTSDNGTSWTTIHSTTTSTGGAQTLDVNGSGRYIRLYGTQRGTAYGYSLWEFQVYGSGEGTPPGSGIPDPTTVSLEATNGPLTTATYTVPSPSGYGSGTVTYPTASGSYPGIVLMPGYQGTQQNLQWLAPRLASWGFVVINVGTNTLTDDPESRGRQITAAGTQLLALGDAPGNPLSGKLNGTLGATGHSMGGGGVMAALRDDSRFRAGVPTAPYHPNGNFSGVTEPTFFLTCQSDAVAHGDRYAVPWYTSMSQAEKLYIEVPGDHLCPMTGYGNKAKQGKWMVSFFSLWLRADTRFSPFLCGPARDADKNDTSLVTRWMDTCQF"}, "B2": {"name": "unnamed (protein)", "chain": "MLGVMGWSMGGGGTLITVDDHPELKAAITLCAWNPGQTYRQNQVPTLLFAGTADVLAGGQSQGFYTSIPETTPKMLFEVQGADHFFANTPEGASGQCGKYGTAWLKVFLVGDECYRPFLLEPPSGTSDFRTNLE"}, "B3": {"name": "unnamed (protein)", "chain": "MPKSDRSTPQPARSQHGGFAKLSLGLTALLMSVLVHAQSNPFERGPEPTVASLEAAAGPYAVQTTQVGKGNSNDYARGTVYYPVANDGQFALIAIVPGYTERQAGVSWWGSRLASHGFVVVTVDTNAPGEFPPSRARALKDALATVVKLSQTSSSPFFGKIDASRQGIMGHSMGGGATLELARSNSKLKAAIPFAPWNSNSKVYTRVKVPTLIISCQRDAVAPVNSHANKFYDSFSATLDKALLEVTGGDHYCASTSASAANKAVVGKYGVAWMKRFLDNDTRYSQFLCGAPHQADLAGPIISSYKDSCPY"}, "B4": {"name": "unnamed (protein)", "chain": "MRPPCCSAGATWLSRSRSRAAVVLTTLVATVSALLIVSAAPALAAPVPAPTTASLEATNGPLATASYTVPNPSGYGSGTITYPTGSGSYPGVVLMPGYQGTQQNLRWLAPRLASWGFVVVNVGTRTLTDDPESRGDQISAAGTQLLAFSNAVGNPITGKVNGTLGAAGHSMGGGGTMVALRDDARFRAGVPLAPYYQNGNFSSVAKPTFSLTCRSDVAAPGNTYALPWYNSMTRAEKLYVEVPGDHLCPMTGYGNKAKQGKWIVSFFSRWLRGDTRFSPFLCGAEREADRNNAALVTRWMDTCPY"}, "B5": {"name": "unnamed (protein)", "chain": "MRARTRLTALAAGLTLALGAPAATAATADQAQPAASASVEHGPAPTKESIGVDGPYKVASKKAPIDLKRSFYGGTIYYPADAGKGETYGTVVTMPGFLEPGAVMDLVAKRLASHGFVVMRAEALTPFSIPLVRAQAVLSAQKVLHADADLAPIMDTERTALVGHSMGGGGVLHAAAMSEQDAVIPIHPWAQTIFPLVKEPTLTIGGLLDNVAPMVEYTLPIYASIGSETKGLFTDLAGTHWAGLVDNKVIQGRILSFVKLHVDGDTRYEQFVCAPAEKGFTYKSPC"}, "B6": {"name": "unnamed (protein)", "chain": "MKTTKGTKIALIAFTLSFSLSAFSGGGGGGNNNGGLPAPNTCTSNCGFETGPNPNLNFVRASRGPLPTRTTVVSRSVDGFGGGTIYYPSNASEEMAAIAVSPGFTATQSSIDWWGPILASHGFVVITIDTNSRFDQPISRGRQLDSALSYLISENSRRNSPISGLVDETRLATMGHSMGGGGALRSASRNRLSAAMPMAPFNVGNNDFNQIRVPTMIMACENDVVAPVGIHARPFYNRIPGSTDKVLLEFNNGPHNCANGESSGNRPLLSTYGVSWMKRFLDKDRRYNQFLCGPNHVANNGISDFRSTCTF"}, "B7": {"name": "unnamed (protein)", "chain": "MKGIRTRVLPVGKKNTGVKMRCAWRRRVSAFTQSAILHNTHSQETPVMSDPRLSVARLAWAGILLMGAASATCQAQTNPFERGPDPTSSLLNASAGPLATASVAVASPTGFGGGTIYYPTAANTYGVIALCPGFTGTQSSVAWLGSRLASHGFVVVTMNTNSSLDFPASRATQLMAALNHVINNSNATVKSRIDPNRRAVGGHSMGGGGSLIAAQNNPSLKGAYPLTPWNTSTNFSGVGVPTMIIGADGDTTAPVGSHARPFYASLPAATLKAYGELNGATHSTPTSTNTPTGRYAVSWMKRFVDTDTRYSPFLCGAEHTSYATATVFDRYQQNCPY"}, "B8": {"name": "unnamed (protein)", "chain": "MKTTQFLRTAVCTFTLSFSLTAFSGGGGGSSDNDGNLPTPNSCTSNCGFEIGPNPNLNFVRASQGPLPVSTTTVASSVDGFGGGTIYYPSNISDEVAAIAISPGFTARQSSIAWWGPILASHGFVVITIDTNSRFDQPDSRGRQLDSSLSYLINESNRSNSPISGRVDDSRLAAMGHSMGGGGSLRSAARNRLSAAMPLAPFRVGGNDFDQIRVPTMIMACENDVVAPVGVHARPFYNRIPGSTDKVLLEINNGSHSCANGESSGNRPLLSTYGVSWMKRFLDKDRRYNQFLCGPNHEANSQISDFRDTCNF"}, "B9": {"name": "unnamed (protein)", "chain": "MASRQSKTRLTRRAKLTALAAATLLSFAAQAQTVIFSENFGSGLGQFTTSGTVSTSSGAAVIQGCYNCTDGAIVSKSISTVGYTGLKLSYDRSTTGLDSGEYGVSAYLVSGGAWTAIENITSSSGRVTLTLPAAVENQASVQLRFRVSSSLSTETLTVDNVVLEGTSASGGGGGGAGYEKGPNPTNAALEASAGPFTVATKAVSASSASGYGGGTIYYPTNVTGTLGAVVVIPGYTAYQSSVSWWGSRLASHGFVVMTIDTNSIYDLPPARATQLMAAVNQLKVFNATAGHVIQGKIDTTRMGIMGWSYGGGGTLIAARDNPSLKAAIPFAPKTTTGTDFSGITMPTLIIGCESDSTAPVSSWSIPFYNSIPAAVKKAYLEVNNGDHFCPTTSGPSSVKPILGKYGVSWMKRWLDNDTRYSTFLCGSPHTTDLGNTAVISEYRDNCPY"}, "B10": {"name": "unnamed (protein)", "chain": "MPSADEPDAGTAPPPEPGSNHWERGPEPTAESASMPGPYQVESLTAELPDRVEYLSQTLWYPTDAEPPFAGFAIVPGFVSPEGSIAEWGPFLASHGIVVLTIGTNTGGDLPDVRALALAAAVEVLKGEHTRSGSPLEGSMDTDRMAVGGWSMGGGGTLLAIAADPSLKAGIGLTPWHIGALPFTEISVPTLMFAGTADVLAGGMSQGFYDAIPASTPKTLFEILGADHFYSNNPLLPNIEVGRYGLSWLKVFLEGDERYRQFLSVEPMGASDFRTTAP"}, "B11": {"name": "unnamed (protein)", "chain": "MNSNRTVPLRRAAIAVVLALTLVACDWKGPAPTDASLTAASGPFAVSTLAVPSSAGFGGGTIYYPSNVDGPFAAISVSPGFFSTQSAIAAWGPRLASHGFVVITINTTSLLADPTQRSTEQRQALAHVVNQGNTASSPIFGLVDGNRTGVAGHSMGGGASLISAQADPSIDAAMPFAPWNLGTNFAGITSPTLVLACQADGVAAPNSMASPMYNSIPATTKKMYLSVTNGDHSCANAPTGGNNDVGRYGVAFFKRWLDSDTRYDPWMCGASAPTAGGALNEVRSTCPF"}, "B12": {"name": "unnamed (protein)", "chain": "MLLVSANALSYTPAPVANPAPIAAPAPCQDCDFNRGPNPTNSSVERLGPYSVATQRVSSSVSGFGGGTIHYPTNIAGKVGAIAVVPGFVSPESSIRWWGPQLASHGFVVITIATNSIFDQPSSRERQLGRALDYVINQTNSSGTAISGLVDTNRLGAMGWSMGGGGSLRLANGGRLSAVIPLAPWNEGASGFSQLTTPTLVVACENDLIAPVRVHASPFYNVIPNTTDKAFLEVNNGSHSCANGGGVNGGLLSKYGVSWMKRFIDEDTRYQQFLCGPNHSANPAISEYRDTCNY"}, "B13": {"name": "unnamed (protein)", "chain": "MERGNHRAKWVIGLGLLALAAAAQSQTNPFQKGPDPTSTLLNATSGPFSVATSSVSSLAAQGFGGGTIYYPSTTGTYAVLAISPGFTATQSSIAWLGRRIATHGFVVITIDTNSTLDQPPSRATQLIAALRHVTDLSNATVRSRVDASRRGVAGHSMGGGGSLIAARDNPSLKAAVPLTAWSTTKVFSTVQVPTLVVGAENDTIASVSSHSIPFYTSLSSSLDKAYAELNNASHLAPNTTNTPIGRYSVAWVKRFMDNDTRYTPFLCGAPHQSYATSAVFSDYRSTCPY"}, "B14": {"name": "unnamed (protein)", "chain": "MKKNIFKKACLSALVIAFSLSAHSGGGGGDDGGSDQLPLPDSCNSNCGYEVGPNPTLSALEATQGPLSVSASTVSSSVDGFGGGTIYYPNNASQELATIAVAPGFTNTQSAIQWWGPLLASHGYVVITIDTNGRFDNPGSRSLQLDAALSYLISEGNRSSSDISGLVDENRLATMGFSMGGGGTLISASRNRLSAAVPMAPWNTGGNDFDAIGVPTLIFACEDDSTARINSHASPFYNSIPSSTDKAYMEINNGPHNCANGNNGNGNDALLSTYGVSWMKRFLDKDSRYDQFLCGPNHVANSKINEYRDTCNY"}, "B15": {"name": "unnamed (protein)", "chain": "MKLTFVPLAITVVATLTCTSVVAKINLVESQVIQISELKKPAESLIDKSAQTAALPIPPSIATCIDDSAISADNLSQAKDNGPFAISSKDIPRQSAIGFGGGTIHYPINASGCGLLAAIAVVPGFVSYESSIKWLGPRLAAWGFVVITINTDSIYDNPDSRARQLSAALDTIISDDNVGSIVDPNRLGAIGWSMGGGGALKLATVRDEVRAIVPLAPYHDKDYGEVSTPTLVIACQFDRIARNKKYGSMFYDKAIGPKMKVELNNASHFCPSYRFNEILLSKPIIAWMQRYINEDERFDKLLCANETYSENPRFSSYDYANCS"}}, "data": [{"substrate": "BHET", "details": "120 h", "values": [{"protein": "B1", "plate clearing": "not clears the plate"}, {"protein": "B2", "plate clearing": "not clears the plate"}, {"protein": "B3", "plate clearing": "clears the plate (z > 3 vs empty vector)"}, {"protein": "B4", "plate clearing": "not clears the plate"}, {"protein": "B5", "plate clearing": "not clears the plate"}, {"protein": "B6", "plate clearing": "not clears the plate"}, {"protein": "B7", "plate clearing": "not clears the plate"}, {"protein": "B8", "plate clearing": "not clears the plate"}, {"protein": "B9", "plate clearing": "not clears the plate"}, {"protein": "B10", "plate clearing": "not clears the plate"}, {"protein": "B11", "plate clearing": "not clears the plate"}, {"protein": "B12", "plate clearing": "not clears the plate"}, {"protein": "B13", "plate clearing": "not clears the plate"}, {"protein": "B14", "plate clearing": "not clears the plate"}, {"protein": "B15", "plate clearing": "not clears the plate"}]}]}
